Results from patent publication US20120058906A1 (published 2012).

T1: rHuman Erythropoietin R/Fc Chimera, CF (R&D Systems Cat#963-ER) (human, UniProt P19235 25-250)
T1 construct: Bought Fc chimera; also called EPO R/Fc; EPOR; Fc part of the bought chimera not given
T1 sequence: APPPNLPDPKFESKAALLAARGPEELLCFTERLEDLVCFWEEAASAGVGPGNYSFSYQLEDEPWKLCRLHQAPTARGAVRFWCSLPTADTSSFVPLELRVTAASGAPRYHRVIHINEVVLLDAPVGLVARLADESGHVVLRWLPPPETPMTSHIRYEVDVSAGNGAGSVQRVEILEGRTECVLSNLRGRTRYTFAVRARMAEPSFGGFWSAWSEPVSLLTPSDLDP

T2: rHuman Erythropoietin R/Fc Chimera, CF (R&D Systems Cat#963-ER) (human, UniProt P19235 25-250)
T2 construct: Bought reagent; also called EPO R/Fc; Epo R; Fc part of the bought chimera not given
T2 sequence: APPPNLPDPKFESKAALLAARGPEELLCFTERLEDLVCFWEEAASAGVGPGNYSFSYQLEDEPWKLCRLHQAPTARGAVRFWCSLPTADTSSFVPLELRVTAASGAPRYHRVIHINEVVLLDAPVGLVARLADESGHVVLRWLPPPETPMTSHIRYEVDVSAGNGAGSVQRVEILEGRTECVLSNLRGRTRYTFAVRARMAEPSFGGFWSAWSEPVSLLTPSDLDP


Tests used:
[1] = molecular target: T3, rHuman Notch-1/Fc Chimera, CF (R&D Systems Cat#3647-TK) (human, UniProt P46531 19-526); test: MSD ECL titration, Fab 37.2 nM, blank 199
T3 construct: Bought Fc chimera; Fc part of the bought chimera not given

[2] = molecular target: T4, rHuman IGF-1 sR (insulin-like growth factor-1 soluble receptor), CF (R&D Systems Cat#391-GR) (human, UniProt P08069 31-932); test: MSD ECL titration, Fab 37.2 nM, blank 199
T4 construct: Bought soluble receptor; also called IGF-R1

[3] = molecular target: T5, rHuman P-Cadherin/Fc Chimera, CF (R&D Systems Cat#861-PC) (human, UniProt P22223 108-654); test: MSD ECL titration, Fab 37.2 nM, blank 199
T5 construct: Bought Fc chimera; Fc part of the bought chimera not given

[4] = molecular target: T6, Recombinant Human DLL4 (R&D Systems Cat#1506-D4/CF) (human, UniProt Q9NR61 27-524); test: MSD ECL titration, Fab 37.2 nM, blank 199
T6 construct: Bought recombinant protein; also called rHuman DLL4; delta-like protein 4

[5] = molecular target: T7, rHuman HGF R/c-MET/Fc Chimera, CF (R&D Systems Cat#358-MT/CF) (human, UniProt P08581 25-932); test: MSD ECL titration, Fab 37.2 nM, blank 199
T7 construct: Bought Fc chimera; also called HGF R/Fc; Fc part of the bought chimera not given

[6] = molecular target: T8, rHuman CD44/Fc Chimera, CF (R&D Systems Cat#3660-CD) (human, UniProt P16070 21-220); test: MSD ECL multi-spot, Fab 0.14 uM, blank 237
T8 construct: Bought Fc chimera; Fc part of the bought chimera not given

[7] = molecular target: T4, rHuman IGF-1 sR (insulin-like growth …); test: MSD ECL multi-spot, Fab 0.14 uM, blank 237
[8] = molecular target: T5, rHuman P-Cadherin/Fc Chimera, CF (R&D …); test: MSD ECL multi-spot, Fab 0.14 uM, blank 237
[9] = molecular target: T1, rHuman Erythropoietin R/Fc Chimera, CF …; test: MSD ECL multi-spot, Fab 0.14 uM, blank 237
[10] = molecular target: T9, rHuman EGF R/Fc Chimera, CF (R&D Systems Cat#344-ER) (human, UniProt P00533 25-645); test: MSD ECL multi-spot, Fab 0.14 uM, blank 237
T9 construct: Bought Fc chimera; Fc part of the bought chimera not given

[11] = molecular target: T2, rHuman Erythropoietin R/Fc Chimera, CF …; test: ECL (MSD multi-spot), antigen spotted on plate; Fab 705 nM; blank spot 483
[12] = molecular target: T10, Recombinant Human DLL4 (R&D Systems Cat#1506-D4/CF) (human, UniProt Q9NR61 27-524); test: as above
T10 construct: Bought reagent; also called delta-like protein 4

[13] = molecular target: T11, rHuman ErbB2/Fc Chimera, CF (R&D Systems Cat#1129-ER) (human, UniProt P04626 23-652); test: as above
T11 construct: Bought reagent; also called HER2/neu; human epidermal growth factor 2 receptor; Fc part of the bought chimera not given

[14] = molecular target: T12, rHuman EGF R/Fc Chimera, CF (R&D Systems Cat#344-ER) (human, UniProt P00533 25-645); test: as above
T12 construct: Bought reagent; also called epidermal growth factor receptor; Fc part of the bought chimera not given

[15] = molecular target: T13, rHuman HGF R/c-MET/Fc Chimera, CF (R&D Systems Cat#358-MT/CF) (human, UniProt P08581 25-932); test: as above
T13 construct: Bought reagent; also called HGF R/Fc; hepatocyte growth factor receptor; Fc part of the bought chimera not given

[16] = molecular target: T14, rHuman Notch-1/Fc Chimera, CF (R&D Systems Cat#3647-TK) (human, UniProt P46531 19-526); test: as above
T14 construct: Bought reagent; Fc part of the bought chimera not given

[17] = molecular target: T15, rHuman CD44/Fc Chimera, CF (R&D Systems Cat#3660-CD) (human, UniProt P16070 21-220); test: as above
T15 construct: Bought reagent; Fc part of the bought chimera not given

[18] = molecular target: T16, rHuman IGF-1 sR (IGF-1 sR), CF (R&D Systems Cat#391-GR) (human, UniProt P08069 31-932); test: as above
T16 construct: Bought soluble receptor; also called insulin-like growth factor-1 soluble receptor; IGF-R1

[19] = molecular target: T17, rHuman P-Cadherin/Fc Chimera, CF (R&D Systems Cat#861-PC) (human, UniProt P22223 108-654); test: as above
T17 construct: Bought reagent; also called CDH3; Fc part of the bought chimera not given
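Also: blank spot per well as comparator with Hit at signal to blank ratio of 4 or more.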

Row | ECL signal [1] | ECL signal [2] | ECL signal [3] | ECL signal [4] | ECL signal [5] | ECL signal [6] | ECL signal [7] | ECL signal [8] | ECL signal [9] | ECL signal [10] | ECL signal [11] | ECL signal [12] | ECL signal [13] | ECL signal [14] | ECL signal [15] | ECL signal [16] | ECL signal [17] | ECL signal [18] | ECL signal [19] | Binder
1 | 402 | 295 | 649 | 16700 | 207 | 515 | 663 | 423 | 693 | 823 | – | – | – | – | – | – | – | – | – | Fab VH1-46_IGHD6-6*01_IGHJ1*01 & L6_IGKJ1*01 (Fab, V domains shown, Expressed in E. coli as Fab: heavy chain with CH1 plus Flag and His tags from Plasmid A, kappa light chain constant region from Plasmid C; also called Fab No. 1) VH: QVQLVQSGAEVKKPGASVKVSCKASGYTFTSYYMHWVRQAPGQGLEWMGIINPSGGSTSYAQKFQGRVTMTRDTSTSTVYMELSSLRSEDTAVYYCAREEYSSSSAEYFQHWGQGTLVTVSS VL: not shown
2 | – | – | – | – | – | – | – | – | – | – | 4890 | 981 | 671 | 692 | 839 | 958 | 693 | 630 | 827 | Fab VH1-46_IGHD3-10*01_IGHJ4*01 & B3_IGKJ1*01 (Fab, V domains shown, also called IGHV1-46*01) VH: QVQLVQSGAEVKKPGASVKVSCKASGYTFTSYYMHWVRQAPGQGLEWMGIINPSGGSTSYAQKFQGRVTMTRDTSTSTVYMELSSLRSEDTAVYYCAREYYYGSGSYYNDYFDYWGQGTLVTVSS VL: not shown
